Reference: article PMC9381590

Molecular target: endogenous PKM2 (human (endogenous in CRC cells)) (UniProt P14618)
Test: not stated; monomeric, dimeric and tetrameric forms of endogenous PKM2 in HCT116 cells with or without DDX39B overexpression (Supplementary Fig. 7c)

Chain of endogenous PKM2, P14618 1-531 (natural protein; other documents disagree on this pair) (P14618 whole entry): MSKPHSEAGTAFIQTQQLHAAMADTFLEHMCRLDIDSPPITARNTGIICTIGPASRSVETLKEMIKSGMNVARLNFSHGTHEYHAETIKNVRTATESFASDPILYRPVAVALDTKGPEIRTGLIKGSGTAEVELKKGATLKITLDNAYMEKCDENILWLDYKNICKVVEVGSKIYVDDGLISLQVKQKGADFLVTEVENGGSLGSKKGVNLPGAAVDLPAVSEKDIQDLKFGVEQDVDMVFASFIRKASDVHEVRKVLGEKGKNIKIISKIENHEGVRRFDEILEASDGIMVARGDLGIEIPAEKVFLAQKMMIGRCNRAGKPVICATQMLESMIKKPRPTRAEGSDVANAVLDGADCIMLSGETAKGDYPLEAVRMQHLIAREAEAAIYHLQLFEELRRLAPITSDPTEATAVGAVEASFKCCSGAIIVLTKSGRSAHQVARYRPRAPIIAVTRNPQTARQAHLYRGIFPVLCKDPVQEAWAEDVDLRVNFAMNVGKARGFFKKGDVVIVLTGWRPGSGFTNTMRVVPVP

endogenous PKM2, P14618 1-531 (natural protein; other documents disagree on this pair)
stoichiometry N: 2
